Measurements from the nanobody polyreactivity screen of Harvey et al. (2022).

Assay: yeast display, Sf9 membrane polyspecificity reagent, FACS + sequencing; frameworks hold sequencing errors
Summary of the method: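 Sorting gates, low and high (top ~1%), were placed on anti-HA fluorescence to track expression and on streptavidin fluorescence to track reagent binding. A clone's polyreactivity label is taken from the gate it came out of. The reagent was 10% biotinylated, detergent-solubilized Sf9 membrane, applied for 1 hour at 4 °C to galactose-induced yeast display cells.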

| Sequence | polyreactivity (PSR sort gate) |
| --- | --- |
| QVQLVESGGGLVQAGGSLRLTCAASGNTFNNNAMGWYRQAPGKERELVAAISGSGGSTYYADSVKGRFTISRDNAKNTVYLQMNSLKPEDTAVYYCAVRLVHGGKRYGYWGQGTQVTVSS | high polyreactivity |
| QVQLVESGGGLVQAGGSLRLTCAASGRIFKRYVMGWYRQAPGKERELVAAISVRGASTYYADSVKGRFTISRDHAKNTVYLQMNSLKPEDTAVYYCATAGYRLLDYWGQGTQVTVSS | high polyreactivity |
| QVQLVESGGGLVQAGGSLRLTCAASGRIFNYYAMGWYRQAPGKERELVAVITYSAGRTYYADSVKGRFTLSRDNAKNTVYLEMNSLKPEDTAVYYCNADGWVSVSKHYYYWGQGTQVTVSS | low polyreactivity |
| QVQLVESGGGLVQAGGSLRLTCAASGRIFTGYAMGWYRQAPWKERELVAAISRGSSTYADSVKGRFTISRDNAKNTVYLQRNSLKPEDTAVYYCAAKWRAADWWPRTSQYDYWGQGTQVTVSS | high polyreactivity |
| QVQLVESGGGLVQAGGSLRLTCAASGRIFYQYALGWYRQAPGKERELVSSITTSGGNTYYADSVKVRFTISRDNAKNTVYLQMNSLKPEDTAVYYCASRFNWRQWLYEYWGQGTQVSVSS | low polyreactivity |
| QVQLVESGGGLVQAGGSLRLTCAASGRNFPAYVMGWYRQAPGKERELVAGITSASSTYYADSVKGRFTISRDNAKNTVYLQMNSLKPEDTAVYYCAAVGYSVRQRYDYWGQGSQVTVSS | high polyreactivity |
| QVQLVESGGGLVQAGGSLRLTCAASGRTFHAYVMGWYRQAPGKERELVADISSGGDTYADSVKGRFTISRDNAKNTVYLQMNSLKPEDTAVYYCAVDVIQDESGYWGQGTQVTVSS | low polyreactivity |
| QVQLVESGGGLVQAGGSLRLTCAASGRTFRKNAMGWYRQAPGKERELVAAITGSSGTTYYADSVKGRFTISRDNAKNTVYLQMNSLKPEDTAVYYCATTVGDPGRRYYYWGQGTQVTVSS | high polyreactivity |
| QVQLVESGGGLVQAGGSLRLTCAASGRTFRQYAMGWYRQAPGKERELVAAIRTNGGRTYYADSVKGRFTISRDYAKNTVYLQFNSLKPEDTAVYYCAVYAVVQGVLFDYWGQGTQVTVSS | high polyreactivity |
| QVQLVESGGGLVQAGGSLRLTCAASGRTFRRNAMGWYRPAPAKERELVAAITSGGGTYYADSVKGRFTISRDNAKNTVYLQMNSLKPEDTAVYYCNKKTSAGRVDYWGQGTQVTVSS | high polyreactivity |
| QVQLVESGGGLVQAGGSLRLTCAASGRTFYIYTMGWYRQAPGKERELVAAISSSGDSTYYADSVKGRFTISRDNAKYTVYLQMISLKPEDTAVYYCAAEYAYHHVGFGYWGQGTQVTVSS | low polyreactivity |
| QVQLVESGGGLVQAGGSLRLTCAASGRTFYYYAMGWYRKAPGKERELVAAIDSDGSTTYADSVKGRFTISRDNAKNTVYLQINSLKPEDTAVYYCAAAFPTYRHYYWGQGTQVTVSS | low polyreactivity |
| QVQLVESGGGLVQAGGSLRLTCAASGRTLAWYTMGWYRQAPGKERELVAAISGSGGSTYYADSVKGRFTISRDNAKNTVYFQINRLKPEDTAVYYCSLRVDSYYGHTRYYYWGQGTQVTLSS | high polyreactivity |
| QVQLVESGGGLVQAGGSLRLTCAASGRTLNPYAMGWYRQAPGKERELVAAITWRGGSTYYADSVKGRFTISRDNAKNTVYLQMNSLKPEDTAVYYCAAREYYYPYYYWGQGTQVTVSS | high polyreactivity |
| QVQLVESGGGLVQAGGSLRLTCAASGRTYNLYAMGWSRQAPGKERELVAAISSSTDSTYYAYSVKGRFTISRDNAKITVYLEMNSLKPEDTSVYYFAARRPSYPRYGYWGQGTQVTVSS | high polyreactivity |
| QVQLVESGGGLVQAGGSLRLTCAASGSIFEPYTKGWYRQAPAKERELVAAITGSGGSTFYADSVKARFTISRDNAKNTVYLQMNSLKPEDTAVYYCNANAYPYTDVDYWGQGTQVTVSS | low polyreactivity |

| Sequence | polyreactivity (PSR sort gate) |
| --- | --- |
| QVQLVESGGGLVQAGGSLRLTCAASGSIFEYNGMGWYRQAPGKERELVAAITTTGTTDYADSVKGRFTISRDNAKNTVYLQMNSLKPEDTAVDYCAAEYTYYYTGEYDYWGQGTQVTVSS | low polyreactivity |
| QVQLVESGGGLVQAGGSLRLTCAASGSIFISYHMGWYRQAPGKERELVAAIRSRVGSTYYSDSVKGRFTISRDNAKNPVYFQMNCLKPEDPAVYYCAAERSFSRFTTYDYWGQGTQVTVSS | low polyreactivity |
| QVQLVESGGGLVQAGGSLRLTCAASGSIFSTNAMGWYRQAPGKERELVATITSGGRTYYADSVKGRFTISRDNAKNTVYLQMNSLKPEDTAVYYCARVPPKYRWGRRLVYVHVDYWGQGTQVTVSS | low polyreactivity |
| QVQLVESGGGLVQAGGSLRLTCAASGSIFTGNTMGWYRQATGKERELVAAITGSGGRTYYADSVKGRFTISRDNAKNTVYLQMNSLKPEDTAVYYCAADRSYYPDTRTTYGYNYWGQGTQVTVSS | low polyreactivity |
| QVQLVESGGGLVQAGGSLRLTCAASGSIFYVNAMGWYRQAPGKERESVAGITGSGSRTYYADSVKGRFTISRDNAKNTVYLQMNSLKPEDTAVYYCARLTRTSRGLYDYWGQGTQVTVSS | high polyreactivity |
| QVQLVESGGGLVQAGGSLRLTCAASGSIIYTNGMGWYRQAPAKERELVAAISVSGGSTYYADSVKGRFTITRDNEKNTVYLQMNSLKPEDTAVYFCNAKDWYFYRYDYWGQGTQVTVSS | low polyreactivity |
| QVQLVESGGGLVQAGGSLRLTCAASGSTDPYAMGWYRQAPGKERELVARIRYSGGSTYYADSVKGRCTISRDNAKNTVYFQMTSLKPEDTAVYYCAAQSYTYYHHYGYWGQGTQVTVSS | high polyreactivity |
| QVQLVESGGGLVQAGGSLRLTCAASGSTFAYYAMRWYRQAPGTERELVAVINGITGSTYYADSVKGRFTISRDHAKNTVYLQMNSLKPEDTAVYYCNADYAVVTDEGDYWGQGTQVTVSS | low polyreactivity |
| QVQLVESGGGLVQAGGSLRLTCAASGSTFGDNAMGWYRQAPGKEREFVATISWDTGTTYYADSVKGRFTISRDNAKNTVYLHMNSLKQEDTAVYYCNVQSYAEFGYWGQGTQVTVSS | low polyreactivity |
| QVQLVESGGGLVQAGGSLRLTCAASGSTFGLNAMGWYRQAPAKERELVAAITSRGTRTYYADSVKGRFTISRDNAKNTVYLQMNSLKPEDTAVYYCGKDSGATRYGEYDYWGQGTQVTVSS | low polyreactivity |
| QVQLVESGGGLVQAGGSLRLTCAASGSTFISYAMGWYRPAPGKERELVAAISRRGDSTYYADSVKGRFTISRDNAKYTVYLQMKSLKPEDTAVYYCAADSYPAYLGFVGFDYWRQGTQVTVSS | low polyreactivity |
| QVQLVESGGGLVQAGGSLRLTCAASGSTFRLNAIGWYRQAPGKERELVAAISRSTGTTHYADSVKGRFTISRDNAKHTVYLQMNSLIPEDTAVYYCAAQGGDGVLALYYYWGQGTQVTVSS | low polyreactivity |
| QVQLVESGGGLVQAGGSLRLTCAASGSTFRLYAMGWYRQAPGKERELVAGISRTGTSTYYADSVKGRFTISRDNAKTTVFLQMNSLKPEDTAVYYCAASIGGGSYWGQGTQLTVSS | high polyreactivity |
| QVQLVESGGGLVQAGGSLRLTCAASGSTFRWYAMGWYRPAPGKERELVAVITSGASTNYADSVKGRFTISRDNAKNTVYLQMNSLKPEDTAVYYCNRVPYFRWKYGYWGQGTQVTVSS | high polyreactivity |
| QVQLVESGGGLVQAGGSLRLTCAASGSTFSSYGMGWYRQAPGKERELVASITIRGGSTYYADSVKGRFTISRDNAKNTVYLQMNSLKPEDTAVYYCAADVTNRGTWVIYGYYYWGQGTQVTVSS | low polyreactivity |
| QVQLVESGGGLVQAGGSLRLTCAASGSTFTAYAMGWYRQAPGKDLELVDAINWSGGTTYYADSVKGRFTISRDNAKNTVYLQMNSLKPEDTAVYYCPVDGNFFGEVRPYDYWGQGTQVTLSS | low polyreactivity |
